According to patent US20240336672A1 (INSTITUT PASTEUR, published 2024):
Substitutions are numbered along the chain they refer to.

B1: Cv2.3194 (recombinant human IgG1) (antibody, V domains shown)
VH: EVQLVESGGGLIQPGGSLRLSCAASGITVTSNYMSWVRQAPGKGLEWVSVIYPGGSTFYADSVKGRFTISRDNSKNTLYLQMNSLRAEDTAVYYCARDLVVYGMDVWGQGTTVTVSS
VL: EIVLTQSPGTLSLSPGERATLSCRASQSVSSSYLAWYQQKPGQAPRLLIYGASSRATGIPGRFSGSGSGTDFTLTISRLEPEDFAIYYCQQGVTFGGGTKVEIKR
B2: Cv2.5213 (recombinant human IgG1) (antibody, V domains shown)
VH: B1 VH with I27F, T30S, V50L, P53S, F58Y, V100N, V101Y, T111A
VL: DIQMTQSPSSLSASVGDRVTITCRASQGISSYLAWYQQKPGKAPKLLIYAASTLQSGVPSRFSGSGSGTDFTLTISSLQPEDFATYYCQQLDSYSPFTFGPGTKVDIKR
B3: Cv2.3235 (recombinant human IgG1) (antibody, V domains shown)
VH: B1 VH with I27F, T30S, S31R, P53S, L99G, V100D, V101Y
VL: DIQMTQSPSFLSASVGDRVTITCRASQGISSFLAWYQQKPGKAPKLLIYGASTLQSGVTSRFSGSGSGTEFTLTISSLQPEDFATYYCQRLDSYPPITFGQGTRLEIKR
B4: Cv2.1169 (recombinant human IgG1) (antibody)
heavy: QVQLVQSGPEVKKPGTSVKVSCKASGFTFTTSAVQWVRQARGQRLEWIGWIVVGSGNTNYAQKFQERVTITRDMSTTTAYMELSSLRSEDTAVYYCAAPYCSGGTCLDGFDIWGQGTMVTVSSASTKGPSVFPLAPSSKSTSGGTAALGCLVKDYFPEPVTVSWNSGALTSGVHTFPAVLQSSGLYSLSSVVTVPSSSLGTQTYICNVNHKPSNTKVDKKVEPKSCDKTHTCPPCPAPELLGGPSVFLFPPKPKDTLMISRTPEVTCVVVDVSHEDPEVKFNWYVDGVEVHNAKTKPREEQYNSTYRVVSVLTVLHQDWLNGKEYKCKVSNKALPAPIEKTISKAKQPREPQVYTLPPSRDELTKNQVSLTCLVKGFYPSDIAVEWESNGQPENNYKTTPPVLDSDGSFFLYSKLTVDKSRWQQGNVFSCSVMHEALHNHYTQKSLSLSPGK
light: not shown
notes: also called Cv2.1169 IgG
B5: Cv2.1353 (recombinant human IgG1) (antibody, V domains shown)
VH: EVQLVESGGGLVQPGGSLRLSCAASGVTVSSNYMNWVRQAPGKGLEWVSVIYSGGSTFYADSVKGRFIISRDNSKNTLYLQMNSLKTEDTAVYYCARDLGPMGFDIWGQGTMVTVSS
VL: B2 VL with S10F, D70E, D92N, Y94D, S95P, F97V

Molecular target: T1, CoV-HKU1 Spike ectodomain (HKU1-CoV, UniProt Q0ZME7 14-1276)
T1 chain: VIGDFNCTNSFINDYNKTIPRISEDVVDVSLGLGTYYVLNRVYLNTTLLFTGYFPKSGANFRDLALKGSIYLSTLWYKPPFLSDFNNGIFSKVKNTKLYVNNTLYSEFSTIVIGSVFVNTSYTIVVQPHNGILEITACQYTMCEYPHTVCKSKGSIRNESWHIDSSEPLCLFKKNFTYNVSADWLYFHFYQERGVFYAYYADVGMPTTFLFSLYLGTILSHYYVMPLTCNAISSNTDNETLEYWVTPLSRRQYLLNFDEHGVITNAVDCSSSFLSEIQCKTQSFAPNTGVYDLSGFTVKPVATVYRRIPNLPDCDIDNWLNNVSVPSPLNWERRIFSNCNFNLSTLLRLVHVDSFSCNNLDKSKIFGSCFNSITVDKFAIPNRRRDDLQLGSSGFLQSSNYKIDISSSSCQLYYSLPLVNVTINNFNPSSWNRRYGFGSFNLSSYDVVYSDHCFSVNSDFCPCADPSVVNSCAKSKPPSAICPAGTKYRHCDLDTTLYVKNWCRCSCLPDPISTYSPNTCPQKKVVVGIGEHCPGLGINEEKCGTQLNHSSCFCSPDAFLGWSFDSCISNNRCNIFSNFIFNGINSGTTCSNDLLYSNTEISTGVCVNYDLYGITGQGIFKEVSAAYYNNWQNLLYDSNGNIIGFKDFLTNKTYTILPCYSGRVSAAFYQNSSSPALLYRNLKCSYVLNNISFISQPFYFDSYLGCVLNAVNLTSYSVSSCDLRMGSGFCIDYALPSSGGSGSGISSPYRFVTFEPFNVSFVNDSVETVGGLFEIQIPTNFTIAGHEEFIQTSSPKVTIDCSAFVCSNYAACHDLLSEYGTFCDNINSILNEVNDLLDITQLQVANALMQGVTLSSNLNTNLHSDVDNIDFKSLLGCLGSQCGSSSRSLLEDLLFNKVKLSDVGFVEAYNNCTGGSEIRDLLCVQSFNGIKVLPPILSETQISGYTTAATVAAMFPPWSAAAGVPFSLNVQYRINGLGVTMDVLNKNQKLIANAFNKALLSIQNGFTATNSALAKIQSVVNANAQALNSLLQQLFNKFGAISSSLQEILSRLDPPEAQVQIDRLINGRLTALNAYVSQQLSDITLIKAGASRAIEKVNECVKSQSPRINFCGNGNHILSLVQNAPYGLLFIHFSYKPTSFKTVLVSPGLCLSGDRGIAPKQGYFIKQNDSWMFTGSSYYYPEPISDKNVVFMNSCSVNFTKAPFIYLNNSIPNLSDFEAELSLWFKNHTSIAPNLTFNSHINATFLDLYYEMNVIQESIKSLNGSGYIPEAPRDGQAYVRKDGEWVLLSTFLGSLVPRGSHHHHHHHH
Test: ELISA, coated spike ectodomain

Binder | binding result
B1 | no binding
B2 | no binding
B3 | no binding
B4 | no binding
B5 | no binding

Molecular target: T2, CoV-229E Spike ectodomain (229E-CoV, UniProt P15423 16-1113)
T2 chain: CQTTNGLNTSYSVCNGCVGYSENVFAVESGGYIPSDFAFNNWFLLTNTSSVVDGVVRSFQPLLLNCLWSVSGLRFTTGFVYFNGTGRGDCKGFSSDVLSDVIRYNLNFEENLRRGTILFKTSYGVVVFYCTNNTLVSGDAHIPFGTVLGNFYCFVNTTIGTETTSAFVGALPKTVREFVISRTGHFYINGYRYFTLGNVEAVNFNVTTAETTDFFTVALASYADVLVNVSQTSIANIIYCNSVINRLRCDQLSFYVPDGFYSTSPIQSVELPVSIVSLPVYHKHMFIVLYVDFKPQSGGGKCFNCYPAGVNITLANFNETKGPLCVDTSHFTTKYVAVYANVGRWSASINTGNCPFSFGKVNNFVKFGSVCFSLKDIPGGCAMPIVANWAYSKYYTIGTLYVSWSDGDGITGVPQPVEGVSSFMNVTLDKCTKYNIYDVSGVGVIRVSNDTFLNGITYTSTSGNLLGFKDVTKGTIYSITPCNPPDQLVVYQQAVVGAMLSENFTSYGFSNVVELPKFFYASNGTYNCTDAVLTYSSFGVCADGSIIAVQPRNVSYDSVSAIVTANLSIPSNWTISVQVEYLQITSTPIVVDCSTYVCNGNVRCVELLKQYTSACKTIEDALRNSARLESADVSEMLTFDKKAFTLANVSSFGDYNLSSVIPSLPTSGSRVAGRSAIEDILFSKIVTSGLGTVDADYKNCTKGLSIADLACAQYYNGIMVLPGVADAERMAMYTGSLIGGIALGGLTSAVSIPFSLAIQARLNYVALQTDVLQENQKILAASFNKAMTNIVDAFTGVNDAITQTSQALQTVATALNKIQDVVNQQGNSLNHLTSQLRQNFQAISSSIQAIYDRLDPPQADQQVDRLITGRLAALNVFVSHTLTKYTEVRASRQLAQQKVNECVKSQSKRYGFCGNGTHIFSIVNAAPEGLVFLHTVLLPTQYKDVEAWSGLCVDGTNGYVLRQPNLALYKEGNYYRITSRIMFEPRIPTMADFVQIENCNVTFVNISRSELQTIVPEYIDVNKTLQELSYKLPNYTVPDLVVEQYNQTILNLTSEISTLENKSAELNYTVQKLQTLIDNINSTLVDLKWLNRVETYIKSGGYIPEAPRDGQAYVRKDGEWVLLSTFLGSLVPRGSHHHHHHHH
Test: ELISA, coated spike ectodomain

Binder | binding result
B1 | no binding
B2 | no binding
B3 | no binding
B4 | no binding
B5 | no binding
